IntAct's records for PubMed 19219046

Biological target: DDX19B, Q9UMR2-1
Sequence (Q9UMR2 whole entry): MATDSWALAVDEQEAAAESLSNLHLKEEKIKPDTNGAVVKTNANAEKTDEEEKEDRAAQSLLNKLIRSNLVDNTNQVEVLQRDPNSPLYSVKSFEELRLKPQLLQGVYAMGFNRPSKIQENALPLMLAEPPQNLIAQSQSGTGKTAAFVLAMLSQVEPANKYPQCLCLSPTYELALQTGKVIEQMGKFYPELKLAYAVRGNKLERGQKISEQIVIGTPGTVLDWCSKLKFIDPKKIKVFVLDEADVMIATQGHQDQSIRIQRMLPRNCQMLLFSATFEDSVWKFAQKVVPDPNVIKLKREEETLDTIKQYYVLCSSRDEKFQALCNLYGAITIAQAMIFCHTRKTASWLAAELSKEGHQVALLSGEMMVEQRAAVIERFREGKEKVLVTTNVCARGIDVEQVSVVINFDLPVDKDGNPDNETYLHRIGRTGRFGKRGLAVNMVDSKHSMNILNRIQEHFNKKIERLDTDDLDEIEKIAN

Chain of Nuclear pore complex protein Nup214 (Homo sapiens), P35658-1 V353A (P35658 whole entry V353A, one chain of several): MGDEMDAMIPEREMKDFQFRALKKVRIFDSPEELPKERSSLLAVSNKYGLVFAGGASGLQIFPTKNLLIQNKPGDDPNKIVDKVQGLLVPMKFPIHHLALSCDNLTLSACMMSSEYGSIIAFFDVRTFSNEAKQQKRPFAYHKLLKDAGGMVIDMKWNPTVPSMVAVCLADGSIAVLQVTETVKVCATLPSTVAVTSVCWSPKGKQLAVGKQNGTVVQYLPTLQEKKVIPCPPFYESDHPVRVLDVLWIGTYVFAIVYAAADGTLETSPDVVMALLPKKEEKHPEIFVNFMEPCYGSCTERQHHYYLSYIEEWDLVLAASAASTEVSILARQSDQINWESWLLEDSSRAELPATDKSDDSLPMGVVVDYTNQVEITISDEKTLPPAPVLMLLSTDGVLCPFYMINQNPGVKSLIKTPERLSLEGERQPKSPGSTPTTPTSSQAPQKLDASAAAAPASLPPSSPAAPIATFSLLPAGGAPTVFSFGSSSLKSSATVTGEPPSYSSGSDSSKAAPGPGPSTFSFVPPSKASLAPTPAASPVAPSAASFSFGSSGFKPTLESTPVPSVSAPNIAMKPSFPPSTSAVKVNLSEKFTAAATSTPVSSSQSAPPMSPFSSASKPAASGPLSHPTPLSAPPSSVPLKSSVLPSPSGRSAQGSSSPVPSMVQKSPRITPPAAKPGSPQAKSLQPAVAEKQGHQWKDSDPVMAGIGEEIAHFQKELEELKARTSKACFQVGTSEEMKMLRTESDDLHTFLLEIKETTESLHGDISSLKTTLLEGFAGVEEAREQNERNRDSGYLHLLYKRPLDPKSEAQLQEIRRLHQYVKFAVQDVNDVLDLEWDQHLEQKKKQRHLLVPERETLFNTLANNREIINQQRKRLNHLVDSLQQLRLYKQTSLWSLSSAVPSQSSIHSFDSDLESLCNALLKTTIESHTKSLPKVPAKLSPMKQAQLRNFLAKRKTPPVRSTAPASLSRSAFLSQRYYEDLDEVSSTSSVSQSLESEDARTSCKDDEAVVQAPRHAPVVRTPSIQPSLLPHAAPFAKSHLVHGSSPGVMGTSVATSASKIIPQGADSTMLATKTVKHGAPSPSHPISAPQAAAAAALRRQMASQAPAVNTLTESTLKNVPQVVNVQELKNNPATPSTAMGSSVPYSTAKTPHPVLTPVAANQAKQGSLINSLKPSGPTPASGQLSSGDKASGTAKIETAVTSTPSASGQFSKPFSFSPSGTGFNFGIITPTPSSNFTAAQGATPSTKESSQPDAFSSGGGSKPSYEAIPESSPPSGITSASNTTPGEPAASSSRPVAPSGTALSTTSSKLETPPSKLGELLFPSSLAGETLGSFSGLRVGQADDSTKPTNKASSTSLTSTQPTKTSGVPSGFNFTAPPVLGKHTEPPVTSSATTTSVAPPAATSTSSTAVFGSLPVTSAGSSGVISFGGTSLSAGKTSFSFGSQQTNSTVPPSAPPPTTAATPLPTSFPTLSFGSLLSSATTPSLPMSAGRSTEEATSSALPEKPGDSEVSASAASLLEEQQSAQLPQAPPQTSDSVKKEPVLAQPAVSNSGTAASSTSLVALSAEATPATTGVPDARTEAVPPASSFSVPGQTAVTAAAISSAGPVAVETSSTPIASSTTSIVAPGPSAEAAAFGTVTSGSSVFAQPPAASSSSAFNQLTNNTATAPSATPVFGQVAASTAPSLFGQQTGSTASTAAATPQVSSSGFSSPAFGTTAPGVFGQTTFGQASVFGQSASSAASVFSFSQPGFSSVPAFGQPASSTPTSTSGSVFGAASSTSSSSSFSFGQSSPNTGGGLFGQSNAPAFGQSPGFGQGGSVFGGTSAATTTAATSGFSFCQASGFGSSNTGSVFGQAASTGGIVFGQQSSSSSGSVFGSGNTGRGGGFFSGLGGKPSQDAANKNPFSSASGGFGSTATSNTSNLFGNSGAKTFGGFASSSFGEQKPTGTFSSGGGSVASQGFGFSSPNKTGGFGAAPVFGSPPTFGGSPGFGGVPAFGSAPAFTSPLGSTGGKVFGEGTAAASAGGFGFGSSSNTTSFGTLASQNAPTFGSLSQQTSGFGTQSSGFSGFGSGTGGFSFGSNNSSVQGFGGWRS
Chain of Nuclear pore complex protein Nup214 (Homo sapiens), P35658-1 D359R (P35658 whole entry D359R, one chain of several): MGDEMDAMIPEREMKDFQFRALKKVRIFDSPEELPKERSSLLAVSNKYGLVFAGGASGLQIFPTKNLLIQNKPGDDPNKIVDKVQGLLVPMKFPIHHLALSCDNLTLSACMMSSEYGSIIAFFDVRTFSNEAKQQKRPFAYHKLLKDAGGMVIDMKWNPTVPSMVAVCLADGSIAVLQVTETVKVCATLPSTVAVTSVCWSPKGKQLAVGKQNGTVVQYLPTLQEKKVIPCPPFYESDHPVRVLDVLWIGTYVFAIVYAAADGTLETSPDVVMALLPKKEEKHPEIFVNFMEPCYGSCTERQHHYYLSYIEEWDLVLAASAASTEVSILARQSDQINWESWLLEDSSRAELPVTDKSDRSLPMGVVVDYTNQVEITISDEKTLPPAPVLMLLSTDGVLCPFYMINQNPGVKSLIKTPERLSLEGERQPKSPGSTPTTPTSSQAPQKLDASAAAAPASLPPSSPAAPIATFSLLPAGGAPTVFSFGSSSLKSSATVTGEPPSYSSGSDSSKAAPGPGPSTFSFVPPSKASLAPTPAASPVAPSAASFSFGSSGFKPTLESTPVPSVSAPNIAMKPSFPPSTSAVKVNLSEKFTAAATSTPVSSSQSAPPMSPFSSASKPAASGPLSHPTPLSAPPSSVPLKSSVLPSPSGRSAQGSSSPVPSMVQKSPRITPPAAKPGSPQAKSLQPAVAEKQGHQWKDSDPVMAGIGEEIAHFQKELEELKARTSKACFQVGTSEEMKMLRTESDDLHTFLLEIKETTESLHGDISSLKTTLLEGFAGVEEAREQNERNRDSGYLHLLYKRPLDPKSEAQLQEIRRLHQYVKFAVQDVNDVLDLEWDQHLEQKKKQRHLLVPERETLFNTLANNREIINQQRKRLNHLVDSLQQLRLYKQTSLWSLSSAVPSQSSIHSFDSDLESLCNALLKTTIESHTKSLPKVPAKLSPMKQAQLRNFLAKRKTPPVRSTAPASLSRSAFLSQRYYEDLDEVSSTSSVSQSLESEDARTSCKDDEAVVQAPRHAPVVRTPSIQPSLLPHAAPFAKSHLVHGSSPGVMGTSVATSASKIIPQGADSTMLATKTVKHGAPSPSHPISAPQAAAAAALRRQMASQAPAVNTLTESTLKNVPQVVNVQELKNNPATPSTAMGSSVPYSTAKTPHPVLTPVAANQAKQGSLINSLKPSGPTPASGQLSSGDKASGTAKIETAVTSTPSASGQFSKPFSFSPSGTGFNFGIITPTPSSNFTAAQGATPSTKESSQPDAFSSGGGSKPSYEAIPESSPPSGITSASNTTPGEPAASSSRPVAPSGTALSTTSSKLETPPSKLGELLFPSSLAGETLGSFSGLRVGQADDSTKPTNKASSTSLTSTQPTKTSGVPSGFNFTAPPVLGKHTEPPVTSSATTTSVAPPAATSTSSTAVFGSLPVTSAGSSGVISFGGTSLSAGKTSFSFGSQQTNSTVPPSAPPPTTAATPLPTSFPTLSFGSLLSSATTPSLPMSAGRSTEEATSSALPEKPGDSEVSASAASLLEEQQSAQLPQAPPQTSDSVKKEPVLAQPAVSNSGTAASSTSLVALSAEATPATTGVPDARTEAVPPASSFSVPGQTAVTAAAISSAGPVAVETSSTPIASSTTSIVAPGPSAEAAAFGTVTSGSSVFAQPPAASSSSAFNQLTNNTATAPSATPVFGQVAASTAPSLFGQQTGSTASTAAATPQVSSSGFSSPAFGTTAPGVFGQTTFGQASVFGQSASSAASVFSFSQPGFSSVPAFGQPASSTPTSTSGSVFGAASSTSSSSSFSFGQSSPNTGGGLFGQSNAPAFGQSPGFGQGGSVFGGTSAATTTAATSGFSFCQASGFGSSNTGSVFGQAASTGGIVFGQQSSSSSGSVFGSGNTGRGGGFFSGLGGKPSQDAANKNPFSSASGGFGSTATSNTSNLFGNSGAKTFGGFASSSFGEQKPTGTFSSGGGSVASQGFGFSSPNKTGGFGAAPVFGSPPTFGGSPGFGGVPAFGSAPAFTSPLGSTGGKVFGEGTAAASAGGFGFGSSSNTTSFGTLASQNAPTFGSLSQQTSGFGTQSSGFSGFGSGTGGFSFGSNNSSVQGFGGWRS

## Nuclear pore complex protein Nup214 (Homo sapiens), P35658-1 D359R
  effect of a mutation on the interaction: disrupting interaction

## Nuclear pore complex protein Nup214 (Homo sapiens), P35658-1 V353A
  effect of a mutation on the interaction: decreasing interaction
